Data as given in PMC9887757 (2023).

Biological target: 41F17
Assay: SPR; avidity

B1: BKPyV VLP genotype Ia (VP1 virus-like particles) (complex)
chain: MAPTKRKGECPGAAPKKPKEPVQVPKLLIKGGVEVLEVKTGVDAITEVECFLNPEMGDPDENLRGFSLKLSAENDFSSDSPERKMLPCYSTARIPLPNLNEDLTCGNLLMWEAVTVQTEVIGITSMLNLHAGSQKVHEHGGGKPIQGSNFHFFAVGGEPLEMQGVLMNYRSKYPDGTITPKNPTAQSQVMNTDHKAYLDKNNAYPVECWVPDPSRNENARYFGTFTGGENVPPVLHVTNTATTVLLDEQGVGPLCKADSLYVSAADICGLFTNSSGTQQWRGLARYFKIRLRKRSVKNPYPISFLLSDLINRRTQRVDGQPMYGMESQVEEVRVFDGTERLPGDPDMIRYIDKQGQLQTKML
Kd: 0.34 nM
